Reference: US20200255487A1, “A Cell-Based Seeding Assay for Huntingtin Aggregation” (THE REGENTS OF THE UNIVERSITY OF CALIFORNIA, priority 2017, published 2020)

System: HTT-ΔN17-46Q-GFP
Experiment: cell-based HTT seeding assay (ΔN17-1E cells)
Set-up: species or system human
Conditions: ΔN17-1E (HEK293) cells; substance applied as seed; FIG. 4
Text: Described herein is the development of a cell-based HTT seeding assay. A DNA construct encoding Exon1 of mutant human HTT with a 46 polyQ repeat was designed (FIG. 1C). This mutant HTT was engineered to delete amino acid residues 2-16 and was fused with a green fluorescent protein (GFP) at its C-terminus, named HTT-ΔN17-46Q-GFP hereafter. The HTT-ΔN17-46Q-GFP was then cloned into a pcDNA3 vector and transfected into HEK293 cells. Clones of stably transfected cells expressing HTT-ΔN17-46Q-GFP were selected to generate individual cell lines. Expression of the transgene in the cell lines was characterized to confirm its morphology, expression level and subcellular localization. Line 1E, named ΔN17-1E cells, was selected based on it moderate transgene expression with minimal protein aggregates at the baseline. Based on this cell line, a cell-based HTT seeding assay was developed. Extracellular application of preformed HTT aggregates or biosamples from HD patients as “seeds”, to ΔN17-1E cells could induce intracellular aggregation of HTT-ΔN17-46Q-GFP proteins (FIG. 1 through FIG. 3). […] Currently, the assay has been optimized to be performed in a high-throughput format, making it more capable with large quantity of samples. […]

B1: preformed mHTT-exon1 seeds: preformed mHTT-exon1 seeds derived from in vitro formed mHTT fibrils by sonication (protein)
chain: MATLEKLMKAFESLKSFQQQQQQQQQQQQQQQQQQQQQPPPPPPPPPPPQLPQPPPQAQPLLPQPQPPPPPPPPPPGPAVAEEPLHRP
induction of intracellular HTT-ΔN17-46Q-GFP aggregation by extracellularly applied seeds: forms HTT-ΔN17-46Q-GFP aggregates
